From patent publication US20230002503A1 (BIOTHEUS, published 2023)
One block for each binder: values may come before it.

Columns and labels:
[1] = target: T1, monkey CAIX on CHO cells (CHO-cyCAIX) (monkey); experiment: flow cytometry on CHO-cyCAIX cells
T1 construct: whole, on cells
Method: (§1) CHO cells overexpressing human CAIX (CHO-hCAIX cells) were generated by the pCHO1.0 vector (purchased from Invitrogen) transfected with CAIX cDNA. The cell density of the proliferated CHO-CAIX cells were adjusted to 2×10⁶ cells/ml, added at 100 μL/well to a 96-well flow cytometry plate, and centrifuged for later use. The purified CAIX antibody was diluted with PBS, and 3-fold dilution was started from 400 nM for a total of 12 points, and 100 μL/well of the above diluted sample was added to the above-mentioned 96-well flow cytometry plate with the cells, incubated at 4° C. for 30 min, and washed with PBS for two times. Goat F(ah′)2 Anti-Human IgG-Fc(PE) (purchased from Abeam, ab98596) diluted 100 times with PBS was added at 100 μL/well, incubated at 4° C. for 30 min, and washed twice with PBS. PBS was added at 100 μl/well to resuspend the cells, the cells were detected on a CytoFlex (Bechman) flow cytometer, and the corresponding MFI was calculated.
In order to identify the affinity of the antibody to monkey CAIX (cyCAIX) at cell level, the cell strain was constructed according to the method described in Example 4, the affinity of the purified humanized antibody to CHO-cyCAIX was identified at cell level, and the results were shown in FIG. 3 and Table 6.

[2] = target: T2, human CAIX on CHO cells (CHO-hCAIX) (human, UniProt Q16790 38-459); experiment: flow cytometry on CHO-hCAIX cells
Method: as §1
The purified humanized antibodies were subjected to the detection of binding capacity of the purified humanized nanobody to CHO-hCAIX at cell level according to the method described in Example 4, and the results were shown in FIG. 2 and Table 5.

[3] = target: T3, murine CAIX on CHO cells (CHO-mCAIX) (mouse, UniProt Q8VHB5 32-437); experiment: flow cytometry on CHO-mCAIX cells
T3 construct: whole, on cells; also called mouse CAIX
Method: as §1
In order to identify the affinity of the antibody to murine CAIX (mCAIX) at cell level, the cell stain was constructed according to the method described in Example 4, the affinity of the purified humanized antibody to CHO-mCAIX at cell level was identified, and the results were shown in FIG. 4 and Table 7.

[4] = target: T4, human CAIX antigen (purchased from AcroBiosystems) (human, UniProt Q16790 38-414); experiment: BLI (ForteBio), method of Example 3
[5] = target: T2, human CAIX on CHO cells (CHO-hCAIX); experiment: flow cytometry on CHO-hCAIX cells, anti-human IgG-Fc PE
Method: as §1

[6] = target: T4, human CAIX antigen (purchased from …); experiment: BLI (ForteBio), antibody on AHQ sensor, 100 nM antigen, 1:1 model
[7] = target: T4, human CAIX antigen (purchased from …); experiment: BLI (ForteBio), method of Example 3; second run, alongside the humanized antibodies (Table 4)

T3 sequence (Q8VHB5 32-437): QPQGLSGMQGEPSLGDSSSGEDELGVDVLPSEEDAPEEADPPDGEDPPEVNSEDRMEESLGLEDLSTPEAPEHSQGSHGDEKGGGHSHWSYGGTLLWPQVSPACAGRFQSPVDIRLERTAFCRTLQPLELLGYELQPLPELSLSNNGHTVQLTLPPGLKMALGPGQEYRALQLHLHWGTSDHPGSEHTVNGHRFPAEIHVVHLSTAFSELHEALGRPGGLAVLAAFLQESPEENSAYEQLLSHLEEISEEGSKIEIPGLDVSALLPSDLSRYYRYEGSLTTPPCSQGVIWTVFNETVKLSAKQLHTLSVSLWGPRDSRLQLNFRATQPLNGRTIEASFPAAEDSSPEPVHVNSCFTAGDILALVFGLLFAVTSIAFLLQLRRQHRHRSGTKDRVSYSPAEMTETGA

B1: Hu-H-YE-05-D3 (Fc fusion)
chain: EVQLLESGGGLVQPGGSLRLSCAASGNSVNIFSFAAMSWYRQAPGKGLELVAVITTTGGTKYSDSVKGRFTISRDNSKNTLYLQMNSLRAEDTAVYYCNADYLQDYWGQGTQVTVSS
notes: also called humanized recombinant antibody from H-YE-05; not shown: human IgG1 Fc segment
EC50 [1]: 14.3 nM | EC50 [2]: 4.46 nM | EC50 [3]: 20.8 nM | Kd [4]: 10.3 nM | koff [4]: 0.00185 s⁻¹ | kon [4]: 179000 M⁻¹ s⁻¹

B5: H-YE-37 (Fc fusion)
chain: QVQLQESGGGLMHDGDSLRLSCAASGRTFSTYAMGWFRQAPGKEREFVAAISWSGGSTYYADSVKGRFTISRDNAKNTVYLQMNSLKPEDTAVYYCAAEGIYNSGSSYHDANGYDYWGQGTQVTVSS
notes: also called CAIX nanobody H-YE-37; not shown: human IgG1 Fc segment
EC50 [5]: 6.07 nM | Kd [6]: 2.39 nM | koff [6]: 0.00249 s⁻¹ | kon [6]: 1.04e+06 M⁻¹ s⁻¹

B6: H-YE-33 (Fc fusion)
chain: QVQLQESGGGLVQPGGSLRLSCAASGGDFRFYDMGWYRQAPGKQRELVAGITTRGYTNYADVVKGRFTISRDNAKNTVYLEMNSLKPEDTAVYSCSASHFLGGRIDYWGQGTQVTVSS
notes: also called CAIX nanobody H-YE-33; not shown: human IgG1 Fc segment
EC50 [5]: 2.78 nM | Kd [6]: 2.04 nM | koff [6]: 0.00139 s⁻¹ | kon [6]: 682000 M⁻¹ s⁻¹

B9: H-YE-03 (Fc fusion)
chain: QVQLQESGGGLVQPGGSLRLSCTASTSSFNFQTMGWYRQAPGKQRELVATITSRAITNYADSVKGRFTISRDNAAKTVSLQMNSLKPEDTAVYYCNAAWIGDYWGQGTQVTVSA
notes: also called CAIX nanobody H-YE-03; not shown: human IgG1 Fc segment
EC50 [5]: 7.34 nM | Kd [6]: 1.14 nM | koff [6]: 0.00141 s⁻¹ | kon [6]: 1.24e+06 M⁻¹ s⁻¹

B10: H-YE-04 (Fc fusion)
chain: QVQLQESGGGLVQPGGSLRLSCTASTSSFNFQTLGWYRQAPGNQRELVATITSRAITNYADSVKGRFTISRDNAAKTVSLQMNSLKPEDTAVYYCNAAWIGDYWGQGTQVTVSS
notes: also called CAIX nanobody H-YE-04; not shown: human IgG1 Fc segment
EC50 [5]: 7.78 nM | Kd [6]: 0.282 nM | koff [6]: 0.000259 s⁻¹ | kon [6]: 919000 M⁻¹ s⁻¹

B11: H-YE-24 (Fc fusion)
chain: QVQLQESGGGLVQPGGSLRLSCAASGNSVNIFRFAAMAWYRQAPGKQRELVAVITSAGGTKYSDSVKGRFTISRDNAKNTVLLQMNSLKPEDTAVYYCNADYLQDYWGQGTQVTVSS
notes: also called CAIX nanobody H-YE-24; not shown: human IgG1 Fc segment
EC50 [5]: 3.06 nM | Kd [6]: 1.34 nM | koff [6]: 0.000798 s⁻¹ | kon [6]: 594000 M⁻¹ s⁻¹

B12: H-YE-23 (Fc fusion)
chain: QVQLQESGGGLVQPGGSLRLSCAASGNSANIFSFASVAWYRQAPGKQRELVAVITSAGGTKYSDSVKGRFTISRDNAKNTILLQMNSLKPEDTAVYYCNVDYLQDYWGQGTQVTVSS
notes: also called CAIX nanobody H-YE-23; WYE-23; not shown: human IgG1 Fc segment
EC50 [1]: 6.55 nM | EC50 [2]: 3.11 nM | EC50 [5]: 3.55 nM | EC50 [3]: 38.1 nM | Kd [6]: 0.218 nM | koff [6]: 0.0002 s⁻¹ | kon [6]: 917000 M⁻¹ s⁻¹ | Kd [4]: 4.08 nM | koff [4]: 0.000556 s⁻¹ | kon [4]: 136000 M⁻¹ s⁻¹

B13: H-YE-25 (Fc fusion)
chain: QVQLQESGGGLVQPGGSLRLSCAASGNSVNIFRFAAMAWYRQAPGKQRELVAVITTTGGTKYSDSVKGRFTISRDSAKNTVLLQMNSLKPEDTAVYYCNADYLQDYWGQGTQVTVSS
notes: also called CAIX nanobody H-YE-25; not shown: human IgG1 Fc segment
EC50 [5]: 2.44 nM | Kd [6]: 1.21 nM | koff [6]: 0.00106 s⁻¹ | kon [6]: 875000 M⁻¹ s⁻¹

B14: H-YE-05 (Fc fusion)
chain: QVQLQESGGGLVQPGGSRRLSCAASGNSVNIFSFAAVAWYRQAPGKQRELVAVITTTGGTKYSDSVKGRFTISRDSAKNTVLLQMNSLKPEDTAVYYCNADYLQDYWGQGTQVTVSS
notes: also called CAIX nanobody H-YE-05; not shown: human IgG1 Fc segment
EC50 [1]: 7.32 nM | EC50 [2]: 4.55 nM | Kd [7]: 10.3 nM | EC50 [5]: 8.79 nM | EC50 [3]: 31.7 nM | Kd [6]: 0.557 nM | koff [6]: 0.000662 s⁻¹ | kon [6]: 1.19e+06 M⁻¹ s⁻¹ | koff [4]: 0.00159 s⁻¹ | kon [4]: 155000 M⁻¹ s⁻¹

B16: H-YE-32 (Fc fusion)
chain: QVQLQESGGGLVQPGGSLRLSCAASGGARNIFSFAAMAWYRQAPGKQRELVAVITSAGGTQYSSSVKGRFTISRDNAKKTVLLQMNSLKPEDTAVYYCNADYYQDYWGQGTQVTVSS
notes: also called CAIX nanobody H-YE-32; not shown: human IgG1 Fc segment
EC50 [1]: 9.42 nM | EC50 [2]: 14.6 nM | EC50 [5]: 6.14 nM | EC50 [3]: 34.1 nM | Kd [6]: 0.498 nM | koff [6]: 0.000492 s⁻¹ | kon [6]: 988000 M⁻¹ s⁻¹ | Kd [4]: 0.369 nM | koff [4]: 0.0001 s⁻¹ | kon [4]: 271000 M⁻¹ s⁻¹

B17: H-YE-26 (Fc fusion)
chain: QVQLQESGGGLVQAGGSLRLSCAASGNSVNIFRFATVAWYRQAPGEQRELVAVITSAGGTKYSDSVKGRFTISRDNAKNTVLLQMNSLKPEDTAVYYCNADFLQDYWGQGTQVTVSS
notes: also called CAIX nanobody H-YE-26; not shown: human IgG1 Fc segment
EC50 [5]: 4.46 nM | Kd [6]: 0.109 nM | koff [6]: 0.000109 s⁻¹ | kon [6]: 999000 M⁻¹ s⁻¹

Now from value to binder:

EC50 [1]: 25.1 nM | EC50 [2]: 8.71 nM | EC50 [3]: 43.7 nM | Kd [4]: 6.68 nM | koff [4]: 0.00105 s⁻¹ | kon [4]: 158000 M⁻¹ s⁻¹
B2: Hu-H-YE-23-D2 (Fc fusion)
chain: QVQLVESGGGLVQPGGSLRLSCSASGNSANIFSFASVAWYRQAPGKGLELVSVITSAGGTKYSDSVKGRFTISRDNSKNTLYLQMNSLRAEDTAVYYCNVDYLQDYWGQGTLVTVSS
notes: T0013 prints the label as Hu-H-YB-23-D2; also called Hu-H-YB-23-D2; humanized recombinant antibody from H-YE-23; not shown: human IgG1 Fc segment

EC50 [1]: 8.39 nM | EC50 [2]: 9.61 nM | EC50 [3]: 59.6 nM | Kd [4]: 0.384 nM | koff [4]: 0.0001 s⁻¹ | kon [4]: 260000 M⁻¹ s⁻¹
B3: Hu-H-YE-32-D6 (Fc fusion)
chain: QVQLVESGGGLVQPGGSLRLSCSASGGARNIFSFAAMAWYRQAPGKGLELVAVITSAGGTQYSSSVKGRFTISRDNSKKTLYLQMNSLRAEDTAVYYCNADYYQDYWGQGTQVTVSS
notes: also called humanized antibody from H-YE-32; not shown: human IgG1 Fc segment

EC50 [1]: 22.7 nM | EC50 [2]: 2.33 nM | EC50 [3]: 552 nM | Kd [4]: 8.2 nM | koff [4]: 0.00177 s⁻¹ | kon [4]: 216000 M⁻¹ s⁻¹
B4: Hu-H-YE-32-D5 (Fc fusion)
chain: QVQLVESGGGLVQPGGSLRLSCSASGGARNIFSFAAMHWYRQAPGKGLELVAVITSAGGTYYADSVKGRFTISRDNSKKTLYLQMNSLRAEDTAVYYCNADYYQDYWGQGTQVTVSS
notes: T0013 prints the label as Hu-H-YB-32-D5; also called Hu-H-YB-32-D5; humanized antibody from H-YE-32; not shown: human IgG1 Fc segment

Kd [6]: 0.529 nM | koff [6]: 0.000513 s⁻¹ | kon [6]: 969000 M⁻¹ s⁻¹
B7: H-YE-38 (Fc fusion)
chain: QVQLQESGGGLMQPGGSLTLSCAVPRFTLDYYAIGWFRQAPGKEREFVAAISWSGGTTQYSDSAKGRFTISRDNSKNTGYLQMNSLKPEDTATYYCAAGRQLEWRTYDYWGQGTQVTVSS
notes: also called CAIX nanobody H-YE-38; not shown: human IgG1 Fc segment

EC50 [5]: 4.74 nM | Kd [6]: 2.53 nM | koff [6]: 0.00125 s⁻¹ | kon [6]: 495000 M⁻¹ s⁻¹
B8: H-YE-40 (Fc fusion)
chain: QVQLQESGGGLVQAGGSLRLSCAASGRTFSSYAMGWFRQAPGKEREFVATISWNGGSTYYADSVKGRFTISRDNAKNTVYLQMNSLKPEDTAVYYCAAEHDLGELAGTGYDYWGQGTQVTVSS
notes: also called CAIX nanobody H-YE-40; not shown: human IgG1 Fc segment

EC50 [1]: 13.5 nM | EC50 [2]: 5.07 nM | EC50 [3]: 58.8 nM | Kd [4]: 7.84 nM | koff [4]: 0.00142 s⁻¹ | kon [4]: 181000 M⁻¹ s⁻¹
B15: Hu-H-YE-05-D4 (Fc fusion)
chain: EVQLLESGGGLVQPGGSRRLSCAASGNSVNIFSFAAVAWYRQAPGKQRELVAVITTTGGTKYSDSVKGRFTISRDSSKNTVYLQMNSLRAEDTAVYYCNADYLQDYWGQGTQVTVSS
notes: as for B1
